In the assay the target is importin-alpha2 (mImpα2) (Mus musculus, UniProt P52293). The assay can be described thus: MST.

B1: TAF8 NLS NLS (peptide)
chain: PVKKPKIRRKKSLS
With B1, the Kd – broadly, the concentration at which binding is half-saturated – is roughly 1000 nM.

The values are drawn from publication PMC12375970 (2025).
